Source: the supplement of paper PMC9732359
± gives the uncertainty stated by the source.

Assay: protein stability index of a GFP-peptide fusion (yeast GPS) (PSI 1-4); higher = more stable; sorted into four equal gates, so the index is relative within each strain
Method in brief: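 Tiled 17-residue peptides from yeast proteins were fused downstream of GFP on a plasmid that also expresses Cherry, and the pooled library was carried in yeast. Mid-log cultures grown in leucine-free medium were sorted into four equal gates by GFP/Cherry fluorescence ratio. Plasmids from each gate were PCR-amplified and Illumina-sequenced, and reads were assigned to strains by barcodes. Each peptide's protein stability index is the sum, over gates, of the gate's read frequency multiplied by its gate number.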

GQNLKDLLVNFSAGAAA [RPP1A]
protein stability index (doa10∆): 2.27 ± 0.13
protein stability index (pdr5∆): 2.18 ± 0.2
protein stability index (san1∆): 2.02 ± 0.21
protein stability index (ubr1∆): 2.13 ± 0.15

RFFWKRSTNKKSKILRK [UBP6]
protein stability index (doa10∆): 1.19 ± 0.19
protein stability index (ubr1∆): 1.28 ± 0.16

ARILARSERKRTKISRG [ITC1]
protein stability index (doa10∆): 2.56 ± 0.062
protein stability index (pdr5∆): 3.1 ± 0.074
protein stability index (san1∆): 3.07 ± 0.078
protein stability index (ubr1∆): 2.06 ± 0.046

PLARNYIKSMDLISKKT [RPR2]
protein stability index (doa10∆): 2.78 ± 0.065
protein stability index (pdr5∆): 3.01 ± 0.063
protein stability index (san1∆): 2.77 ± 0.054
protein stability index (ubr1∆): 2.94 ± 0.039

AKKQNYKLTNDEEGIFS [YCG1]
protein stability index (doa10∆): 3.23 ± 0.098
protein stability index (pdr5∆): 3.45 ± 0.1
protein stability index (san1∆): 3.15 ± 0.074
protein stability index (ubr1∆): 3.19 ± 0.075

IKYEFNGIPLKSKERSS [YMR129W/POM152]
protein stability index (doa10∆): 2.39 ± 0.11
protein stability index (pdr5∆): 1.24 ± 0.057
protein stability index (san1∆): 1.52 ± 0.26
protein stability index (ubr1∆): 2.98 ± 0.16

IDNLKDTLKENATEVQK [ITC1]
protein stability index (doa10∆): 2.66 ± 0.05
protein stability index (pdr5∆): 2.87 ± 0.068
protein stability index (san1∆): 2.92 ± 0.05
protein stability index (ubr1∆): 2.88 ± 0.05

SEVRKAVSIETALEHKV [FAS2]
protein stability index (doa10∆): 1.67 ± 0.12
protein stability index (pdr5∆): 1.4 ± 0.095
protein stability index (san1∆): 1.35 ± 0.12
protein stability index (ubr1∆): 1.39 ± 0.051

NVFGTLQRHSGISSTLV [YLR018C/POM34]
protein stability index (doa10∆): 2.03 ± 0.09
protein stability index (pdr5∆): 2.01 ± 0.096
protein stability index (san1∆): 1.77 ± 0.23
protein stability index (ubr1∆): 3.25 ± 0.27

SMQTIAETIILSSAGKN [SRB5]
protein stability index (doa10∆): 2.09 ± 0.045
protein stability index (pdr5∆): 2.39 ± 0.048
protein stability index (san1∆): 1.8 ± 0.055
protein stability index (ubr1∆): 1.9 ± 0.029

KREKRVFLKHSLSIKLA [RPN6]
protein stability index (doa10∆): 2.58 ± 0.083
protein stability index (pdr5∆): 3.22 ± 0.09
protein stability index (san1∆): 2.75 ± 0.086
protein stability index (ubr1∆): 2.81 ± 0.094

QGSVTVGLRSNTHAVLV [PRE5]
protein stability index (doa10∆): 1.24 ± 0.033
protein stability index (pdr5∆): 1.43 ± 0.039
protein stability index (san1∆): 1.75 ± 0.07
protein stability index (ubr1∆): 1.29 ± 0.037

HKSLIRSISWAPSIGRW [YGL100W/SEH1]
protein stability index (doa10∆): 2.81 ± 0.12
protein stability index (pdr5∆): 3.1 ± 0.11
protein stability index (san1∆): 2.21 ± 0.22
protein stability index (ubr1∆): 3.1 ± 0.091

ETEAEEDHMLKKIENTM [RPO21]
protein stability index (pdr5∆): 3.37 ± 0.18
protein stability index (ubr1∆): 3.46 ± 0.15

VRPFGVSTLIAGFDPRD [PRE6]
protein stability index (doa10∆): 1.5 ± 0.15
protein stability index (pdr5∆): 1.7 ± 0.13
protein stability index (san1∆): 1.75 ± 0.17
protein stability index (ubr1∆): 1.41 ± 0.084

RNEEILRDIGECENEIK [SMC2]
protein stability index (doa10∆): 2.75 ± 0.094
protein stability index (pdr5∆): 2.94 ± 0.075
protein stability index (san1∆): 2.49 ± 0.12
protein stability index (ubr1∆): 3.23 ± 0.11

DATRVFVNGVWHGVHRN [RPB2]
protein stability index (doa10∆): 3.04 ± 0.093
protein stability index (pdr5∆): 3.35 ± 0.071
protein stability index (san1∆): 3.28 ± 0.048
protein stability index (ubr1∆): 3.27 ± 0.066

SIWQVKDQLPDLESMGL [MED7]
protein stability index (doa10∆): 2.81 ± 0.11
protein stability index (pdr5∆): 3.04 ± 0.079
protein stability index (san1∆): 2.93 ± 0.12
protein stability index (ubr1∆): 3.35 ± 0.097

LKEDDSSLYEASLNALK [RPN1]
protein stability index (doa10∆): 3.44 ± 0.24
protein stability index (pdr5∆): 3.18 ± 0.14
protein stability index (san1∆): 3.5 ± 0.12
protein stability index (ubr1∆): 2.95 ± 0.093

GFKWLNKLDEYHGLYTN [LIN1]
protein stability index (doa10∆): 1.81 ± 0.056
protein stability index (pdr5∆): 1.79 ± 0.056
protein stability index (san1∆): 1.88 ± 0.056
protein stability index (ubr1∆): 1.67 ± 0.068

NESSLALEFVSLLLSSV [SRB4]
protein stability index (doa10∆): 1.18 ± 0.045
protein stability index (pdr5∆): 1.33 ± 0.048
protein stability index (san1∆): 1.53 ± 0.09
protein stability index (ubr1∆): 1.6 ± 0.05

RLDNLQDIKKAKRVENF [DSN1]
protein stability index (doa10∆): 1.52 ± 0.059
protein stability index (pdr5∆): 1.42 ± 0.039
protein stability index (san1∆): 2.56 ± 0.074
protein stability index (ubr1∆): 2.56 ± 0.048

MFILSKIADLVRIPPDQ [RPC25]
protein stability index (pdr5∆): 2.69 ± 0.22

NMPNCDYLTLNKVVVNL [RPN2]
protein stability index (doa10∆): 2.99 ± 0.054
protein stability index (pdr5∆): 2.88 ± 0.061
protein stability index (san1∆): 2.58 ± 0.068
protein stability index (ubr1∆): 3.02 ± 0.051

DESNDIDMIADENGTNS [RPC37]
protein stability index (doa10∆): 2.44 ± 0.1
protein stability index (pdr5∆): 2.43 ± 0.07
protein stability index (san1∆): 2.88 ± 0.11
protein stability index (ubr1∆): 3.12 ± 0.1

LEYEISKLKKETASFIP [YIL149C/MLP2]
protein stability index (doa10∆): 2.66 ± 0.08
protein stability index (pdr5∆): 2.8 ± 0.085
protein stability index (san1∆): 2.89 ± 0.06
protein stability index (ubr1∆): 2.68 ± 0.059

PSNSTTTLHGPGFQLPN [SRB8]
protein stability index (doa10∆): 3 ± 0.1
protein stability index (pdr5∆): 2.85 ± 0.096
protein stability index (san1∆): 2.71 ± 0.066
protein stability index (ubr1∆): 2.91 ± 0.058

KPFGSAKSDETKQASSF [YLR335W/NUP2]
protein stability index (pdr5∆): 2.09 ± 0.12
protein stability index (san1∆): 1.92 ± 0.15
protein stability index (ubr1∆): 1.06 ± 0.13
